Experimental data as given in the Human Domainome abundance scans (Beltran et al. 2025).
± gives the uncertainty stated by the source.

B1: Steroid hormone receptor ERR2, residues 100 to 176; numbered along this chain, O95718 (parent)
chain: KRLCLVCGDIASGYHYGVASCEACKAFFKRTIQGNIEYSCPATNECEITKRRRKSCQACRFMKCLKVGMLKEGVRLD

Variants of: B1
Assay: abundance fitness (aPCA) (normalised: wild type 0, dead -1); higher = more abundant; growth selection in yeast, the domain comes from the species named
Conditions: Homo sapiens

In order of falling abundance fitness:
1. KRLCLVCGDIASGYHYGVAACEACKAFFKRTIQGNIEYSCPATNECEITKRRRKSCQACRFMKCLKVGMLKEGVRLD [S20A]  0.353 ± 0.038
2. KRLCLVCGDIASGYHYGVASCEACKAFFKRTIQGNIEYSCPATNECEITVRRRKSCQACRFMKCLKVGMLKEGVRLD [K50V]  0.118 ± 0.062
3. KRLCLVCGDIASGYHYGVASCEACKVFFKRTIQGNIEYSCPATNECEITKRRRKSCQACRFMKCLKVGMLKEGVRLD [A26V]  0.114 ± 0.043
4. KRLCLVCGDIASGYHYGVASCEACKAFFSRTIQGNIEYSCPATNECEITKRRRKSCQACRFMKCLKVGMLKEGVRLD [K29S]  0.084 ± 0.045
5. KRLCLVCGDIASGYHYGVASCEACKAFFKRTIQGNIEYSCPATNECEITKRRRKSCQACRFMKCLKVGMLKEGERLD [V74E]  0.08 ± 0.054
6. KRLCLVCGDIASGYHYGVASCEACKAFFKRTIQGNIEYSCPATNQCEITKRRRKSCQACRFMKCLKVGMLKEGVRLD [E45Q]  0.055 ± 0.059
7. KRLCLVCGDIASGYHYGVASCEPCKAFFKRTIQGNIEYSCPATNECEITKRRRKSCQACRFMKCLKVGMLKEGVRLD [A23P]  0.023 ± 0.063
8. KRLCLVCEDIASGYHYGVASCEACKAFFKRTIQGNIEYSCPATNECEITKRRRKSCQACRFMKCLKVGMLKEGVRLD [G8E]  0.006 ± 0.06
9. KRLCLVCGDIASGYHYGVASCEACKAFFKRTIQGNIEYSCPATNECEITKRRRLSCQACRFMKCLKVGMLKEGVRLD [K54L]  0.005 ± 0.049
10. KRLCLVCGDIASGYHYGVASCEACKAFFKRTIQGNIEYSCKATNECEITKRRRKSCQACRFMKCLKVGMLKEGVRLD [P41K]  -0.037 ± 0.06
11. KRLCLVCGDIASGYHYGVAWCEACKAFFKRTIQGNIEYSCPATNECEITKRRRKSCQACRFMKCLKVGMLKEGVRLD [S20W]  -0.052 ± 0.047
12. KRLCLVCGDIASGYHYGVASCEACKAFFKRTIQTNIEYSCPATNECEITKRRRKSCQACRFMKCLKVGMLKEGVRLD [G34T]  -0.088 ± 0.063
13. KRLCLVCGDIASGYHYGVASCEACKAFFKRTIQGNIEYSCPATNECEITKRRRKSCQACRFMKCLKVGMLKEGVYLD [R75Y]  -0.102 ± 0.095
14. KRLCLVCGDIASGYHYGVASCEACKAFFKRTIQGNIEYSCPATNECEITKRRRKSCQACRFMKCLDVGMLKEGVRLD [K66D]  -0.103 ± 0.094
15. KRLCLVCGDIASGYHYGVASCEACKAFFKRTIQGNIEYSCPATNECEITKRRRKSCKACRFMKCLKVGMLKEGVRLD [Q57K]  -0.118 ± 0.067
16. KRLCLVCGDIASGYHYGVASCEACKAFFKRTIQGNIEYSCPATNECEITYRRRKSCQACRFMKCLKVGMLKEGVRLD [K50Y]  -0.128 ± 0.084
17. KRLCLVCGDIASGQHYGVASCEACKAFFKRTIQGNIEYSCPATNECEITKRRRKSCQACRFMKCLKVGMLKEGVRLD [Y14Q]  -0.145 ± 0.083
18. KRLCLVCGDIASGYHYGVASCEACKAFFNRTIQGNIEYSCPATNECEITKRRRKSCQACRFMKCLKVGMLKEGVRLD [K29N]  -0.193 ± 0.11
19. KRLCLVCGDIASGYHYGVASCEACKAFFKRTTQGNIEYSCPATNECEITKRRRKSCQACRFMKCLKVGMLKEGVRLD [I32T]  -0.222 ± 0.067
20. KRLCLVCGDIASGYHYGVAECEACKAFFKRTIQGNIEYSCPATNECEITKRRRKSCQACRFMKCLKVGMLKEGVRLD [S20E]  -0.232 ± 0.051
21. KRLCLVCGDIASGYHYGVASCEACKAFFKRTIQGNIEYSCPATNECEITKRRRKSCNACRFMKCLKVGMLKEGVRLD [Q57N]  -0.246 ± 0.087
22. KRLCLVCGDIASGYHYGVASCEACKAFFKRTIQGNIEYSCPATNECEITKRRRKSCQACRFMKALKVGMLKEGVRLD [C64A]  -0.301 ± 0.056
23. KRLCLVCGDIASGYHYGVASCEACKAFFKRTGQGNIEYSCPATNECEITKRRRKSCQACRFMKCLKVGMLKEGVRLD [I32G]  -0.344 ± 0.048
24. KRLCLVCGDIASGYHYGVASCEACKAFFKRTIQGNIELSCPATNECEITKRRRKSCQACRFMKCLKVGMLKEGVRLD [Y38L]  -0.398 ± 0.061
25. KRLCLVCGVIASGYHYGVASCEACKAFFKRTIQGNIEYSCPATNECEITKRRRKSCQACRFMKCLKVGMLKEGVRLD [D9V]  -0.43 ± 0.063
26. KRLCLVCGDIASGYHYGVASCEACKAFFKRTIQGNIEYSCPATNECEITKRRRKSCQACRFMKCLYVGMLKEGVRLD [K66Y]  -0.508 ± 0.19
27. KRLCLVCGDIASGYHYGVASCEACKAFFKRTNQGNIEYSCPATNECEITKRRRKSCQACRFMKCLKVGMLKEGVRLD [I32N]  -0.568 ± 0.19
28. KRLCLVCGDIASGYHYGVASCEACKAFFKRTIQGNINYSCPATNECEITKRRRKSCQACRFMKCLKVGMLKEGVRLD [E37N]  -0.575 ± 0.21
29. KRLCLVCGDIASGYHYGVASCEACKAFFKRTIQGNIEYSCPATNEGEITKRRRKSCQACRFMKCLKVGMLKEGVRLD [C46G]  -0.679 ± 0.073
30. KRLCLVCGDIASGYHYGVASCEACKAFFKRTIQGNIEYSCPATNECEITKRRRKSCQAARFMKCLKVGMLKEGVRLD [C59A]  -0.686 ± 0.097
31. KRLCLVCGDIASGYHYGVASCEACKAFFKRTIQGNIEYSCPATNETEITKRRRKSCQACRFMKCLKVGMLKEGVRLD [C46T]  -0.766 ± 0.15
32. KRLCLVCGDIASGYHYGVASCEACKAFFKRTIQGNIEYSCPATNECEITKRRRKSSQACRFMKCLKVGMLKEGVRLD [C56S]  -0.847 ± 0.12
33. KRLCLVCGDIASGYHYGVASCEACKAFFKRTIQGNIEYSCPATNECEITKRRRKSCQALRFMKCLKVGMLKEGVRLD [C59L]  -0.873 ± 0.11
34. KRLCLVCGDIASGYHYGVASCEACKAFFKRTIQGNIEYSCPATNECEITKRRRKSCQACRFMKCLKVSMLKEGVRLD [G68S]  -0.954 ± 0.14
35. KRLCLVCGDIASGYHYGVASCEACKAFFKRTIQGNIEDSCPATNECEITKRRRKSCQACRFMKCLKVGMLKEGVRLD [Y38D]  -0.979 ± 0.37
36. KRLCLVCGDIASGYHYGVASCEATKAFFKRTIQGNIEYSCPATNECEITKRRRKSCQACRFMKCLKVGMLKEGVRLD [C24T]  -1 ± 0.15
